Source: patent US20170008934A1, “BACTERIALLY FORMED MICROCIN S, A NEW ANTIMICROBIAL PEPTIDE, EFFECTIVE AGAINST PATHOGENIC MICROORGANISMS, E.G. ENTEROHEMORRHAGIC ESCHERICHIA COLI (EHEC)” (SYMBIOGRUPPE GmbH & CO. KG, priority 2011, published 2017)

System: EHEC (86-24 O157:H7, O104:H4, O128:H2)
Assay: in vitro adherence assay: inhibition of EHEC adherence to human intestinal epithelial cells (LOVO) after pre-incubation with test strains
Format: cell-based
Settings: ESBL-producing O104:H4 outbreak strain, O128:H2 and O157:H7 EHEC isolates; FIG. 5 (tested as producer strain E. coli G3/10)
Description: Enterohemorrhagic E. coli adhere to intestinal epithelial cells. In a second experiment, confluent monolayers of LOVO cells were pre-incubated with bacterial test strains at a multiplicity of infection (MOI) of 100:1 E. coli to host cells. The influence of EcN and E. coli G3/10 was tested. After two hours of incubation, cells were washed and infected with EHEC using an MOI of 100:1 EHEC to host cells. Three EHEC isolates were tested as indicator strains using the in vitro adherence assay. We used HUS-associated EHEC 86-24 serotype O157:H7 and two different isolates of the EHEC O104:H4 outbreak strain as well as an EHEC O128:H2 patient isolate. Since the EHEC O104:H4 isolates are ESBL producers, medical treatment is limited. Adherence efficiency in % are expressed as adherence of EHEC relative to adherence without any pre-incubation (negative control), which is set 100%. The data are the mean±SD of three separate experiments in duplicate wells.

B1: microcin S: new class IIa microcin, antimicrobial polypeptide of E. coli G3/10, SEQ ID NO: 7 (precursor with leader SEQ ID NO: 6) (protein, listed as Escherichia coli)
chain: NANSNYEGGGSRSRNTGARNSLGRNAPTHIYSDPSTVKCANAVFSGMVGGAIKGGPVGMTRGTIGGAVIGQCLSGGGNGNGGGNRAGSSNCSGSNVGGTCSR
inhibitory effect of EHEC: shows an inhibitory effect of EHEC
